Assay [1] addresses T1, E-selectin expressed on CHO cells (CHO:E-selectin) (UniProt P16581 22-610, limits assumed).
T1 construct: whole, on cells; also called E-selectin expressing CHO cells; CHO cells which express E-selectin
T1 sequence (looked up): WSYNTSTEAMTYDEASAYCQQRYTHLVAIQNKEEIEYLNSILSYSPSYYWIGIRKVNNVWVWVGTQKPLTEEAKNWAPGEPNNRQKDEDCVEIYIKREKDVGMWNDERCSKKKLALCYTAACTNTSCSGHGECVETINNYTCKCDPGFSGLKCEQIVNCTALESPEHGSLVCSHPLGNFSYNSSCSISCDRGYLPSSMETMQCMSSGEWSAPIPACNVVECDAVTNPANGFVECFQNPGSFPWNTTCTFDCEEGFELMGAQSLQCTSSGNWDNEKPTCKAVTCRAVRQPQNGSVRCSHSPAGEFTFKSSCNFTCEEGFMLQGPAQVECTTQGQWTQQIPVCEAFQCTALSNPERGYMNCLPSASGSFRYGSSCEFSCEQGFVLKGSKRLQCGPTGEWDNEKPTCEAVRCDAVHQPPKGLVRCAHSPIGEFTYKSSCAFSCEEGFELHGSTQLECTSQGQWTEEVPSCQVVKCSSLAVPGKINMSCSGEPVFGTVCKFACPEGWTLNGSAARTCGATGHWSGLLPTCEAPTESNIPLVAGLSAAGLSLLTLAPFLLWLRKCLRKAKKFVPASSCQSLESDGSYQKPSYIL
In words: plate coated with chimera; adhesion of 3H-labelled CHO:E-selectin cells (FIG. 15). As for the experimental part: Quantitative adhesion of CHO:P-selectin, CHO:E-selectin and CHO:L-selectin expressing cells was performed as described in Example 4(c), with the following modifications: COS cell and antibodies were omitted. Instead, 48-well microtiter plates (Costar) were coated for 16 hours at 4° C. with varying quantities of protein A-purified soluble PSGL-1/Fc chimeras. The unbound material was removed and the coated wells were treated with Hank's buffered saline (HBS) with 1 mg/ml BSA and 2 mM CaCl_2 for 1 hour at 4° C. Tritium labeled CHO selectin expressing cells were added and binding quantitated as described in Example 4(c).

Assay [2] concerns the target T2, chimeric protein comprising the extracellular domain of human E-selectin and the Fc portion of human IgG1 … (human, UniProt P16581 22-556).
T2 construct: extracellular domain; Built analogously to LEC-γ1; also called soluble E-selectin chimera; immobilized E-selectin; not shown: Fc portion of human IgG1
T2 sequence (looked up): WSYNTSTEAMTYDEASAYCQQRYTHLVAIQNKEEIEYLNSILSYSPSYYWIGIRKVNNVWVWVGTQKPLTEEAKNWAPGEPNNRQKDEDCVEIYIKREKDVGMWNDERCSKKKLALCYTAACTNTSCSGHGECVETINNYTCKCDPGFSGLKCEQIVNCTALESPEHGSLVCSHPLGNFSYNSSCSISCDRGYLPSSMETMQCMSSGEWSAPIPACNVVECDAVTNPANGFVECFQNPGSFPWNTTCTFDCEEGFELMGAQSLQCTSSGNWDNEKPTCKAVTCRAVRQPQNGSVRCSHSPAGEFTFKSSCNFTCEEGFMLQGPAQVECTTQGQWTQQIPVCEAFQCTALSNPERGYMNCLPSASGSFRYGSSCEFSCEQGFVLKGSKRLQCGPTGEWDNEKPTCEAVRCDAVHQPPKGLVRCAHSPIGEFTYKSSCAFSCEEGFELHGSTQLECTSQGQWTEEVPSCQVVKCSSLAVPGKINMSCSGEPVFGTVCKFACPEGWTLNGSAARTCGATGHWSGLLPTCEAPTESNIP
In words: affinity precipitation from 35S-labelled COS membrane lysates (FIG. 29A). As for the experimental part:
(§1) The labeled cells were washed, incubated with EGTA to loosen them from the dish surface, scraped from the dish, pelleted, and suspended in cold 10 mM PIPES buffer, pH 7.5, containing 100 mM KCl, 3 mM NaCl, 3.5 mM MgCl_2, and protease inhibitors (see above). Membrane extraction then was carried out by sonication, low speed centrifugation, high speed centrifugation, and solubilization in membrane lysis buffer as above, for labeled myeloid cells.
(§2) Affinity Precipitations. Membrane extracts were diluted 1:4 or 1:5 with cell lysis buffer or with TBSC buffer (20 mM TrisHCl, 150 mM NaCl, 2 mM CaCl_2, pH 7.5) supplemented with 5 mg/ml bovine serum albumin (approximately 99%, Sigma). Extracts thus diluted to 0.2-0.25% Triton X-100 were incubated with human IgG_1-Protein A Sepharose with end-over-end mixing at 4° C. overnight. […] The resins were washed 5 or more times in buffer containing 0.1-0.5% Triton X-100 until the radioactivity of the wash supernatants was reduced to background level. […]
(§3) COS cells were cotransfected with cDNAs encoding either PSGL-1 or CD43 and either Fuc-TIII or Fuc-TVII. […] The precipitated products were evaluated by SDS-PAGE/autoradiography following their release by EDTA/EGTA (for selectin mediated binding) or by boiling in SDS (for immunoprecipitations).

Assay [3] has as its target T3, LEC-γ1, chimeric form of P-selectin conjugated to the Fc portion of a human IgGγ1 (human, UniProt P16109 42-771).
T3 construct: extracellular domain; Built by known methods (Aruffo et al. 1991), made in CHO DUKX cells; also called P-selectin/IgG chimera; P-selectin/Fc chimera; not shown: Fc portion of a human IgGγ1
T3 sequence (looked up): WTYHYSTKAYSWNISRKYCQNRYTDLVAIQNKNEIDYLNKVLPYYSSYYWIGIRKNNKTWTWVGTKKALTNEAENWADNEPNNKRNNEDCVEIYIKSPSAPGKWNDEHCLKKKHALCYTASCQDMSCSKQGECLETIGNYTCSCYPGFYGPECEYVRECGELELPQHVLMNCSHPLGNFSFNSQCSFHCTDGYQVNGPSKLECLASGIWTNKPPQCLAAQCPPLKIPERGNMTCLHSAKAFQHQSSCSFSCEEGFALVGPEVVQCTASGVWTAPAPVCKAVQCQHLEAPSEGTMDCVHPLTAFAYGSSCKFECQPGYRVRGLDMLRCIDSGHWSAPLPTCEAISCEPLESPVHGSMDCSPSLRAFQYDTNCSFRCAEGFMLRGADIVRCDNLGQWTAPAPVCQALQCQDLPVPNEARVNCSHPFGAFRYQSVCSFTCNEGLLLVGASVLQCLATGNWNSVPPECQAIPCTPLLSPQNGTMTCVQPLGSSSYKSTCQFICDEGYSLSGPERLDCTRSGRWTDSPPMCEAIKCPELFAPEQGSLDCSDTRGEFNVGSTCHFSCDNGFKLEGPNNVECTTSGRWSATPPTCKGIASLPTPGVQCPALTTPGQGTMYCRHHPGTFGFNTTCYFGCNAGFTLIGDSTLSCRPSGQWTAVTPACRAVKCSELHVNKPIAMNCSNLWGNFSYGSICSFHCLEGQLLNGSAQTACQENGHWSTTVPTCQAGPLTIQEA
In words: affinity precipitation from 35S-labelled COS membrane lysates. As for the experimental part: as §1, §2, §3

In assay [4] the target is T4, P-selectin expressed on the surface of CHO cells (CHO:P-selectin cell line) (UniProt P16109 42-830, limits assumed).
T4 construct: whole, on cells; also called P-selectin expressing CHO cells
T4 sequence (looked up): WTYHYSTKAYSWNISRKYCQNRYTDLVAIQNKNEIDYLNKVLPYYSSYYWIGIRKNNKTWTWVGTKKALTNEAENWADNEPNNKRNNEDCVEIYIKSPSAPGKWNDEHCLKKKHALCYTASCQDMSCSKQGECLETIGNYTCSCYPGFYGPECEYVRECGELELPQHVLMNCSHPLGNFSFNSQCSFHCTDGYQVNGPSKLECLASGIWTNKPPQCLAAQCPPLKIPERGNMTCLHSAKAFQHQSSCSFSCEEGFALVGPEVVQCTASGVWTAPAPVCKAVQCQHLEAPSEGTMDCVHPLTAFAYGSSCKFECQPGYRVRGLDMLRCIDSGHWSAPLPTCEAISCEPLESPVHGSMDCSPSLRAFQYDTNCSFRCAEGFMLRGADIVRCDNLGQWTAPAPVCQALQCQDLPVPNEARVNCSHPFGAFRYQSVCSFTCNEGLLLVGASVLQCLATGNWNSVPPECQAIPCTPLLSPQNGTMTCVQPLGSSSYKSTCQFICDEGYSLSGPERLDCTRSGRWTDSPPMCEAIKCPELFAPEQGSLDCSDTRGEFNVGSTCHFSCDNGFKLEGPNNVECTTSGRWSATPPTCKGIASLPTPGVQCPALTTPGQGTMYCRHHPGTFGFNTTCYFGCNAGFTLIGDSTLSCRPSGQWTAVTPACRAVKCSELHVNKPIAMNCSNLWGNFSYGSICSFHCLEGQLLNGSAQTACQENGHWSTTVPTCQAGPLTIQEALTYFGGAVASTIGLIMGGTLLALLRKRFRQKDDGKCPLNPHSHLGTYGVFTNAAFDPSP
In words: conditioned medium coated on plastic dishes; adhesion of CHO:P-selectin cells. As for the experimental part:
COS cells were co-transfected with the pED.sPSL.T7 plasmid of Example 5(C), the pEA.3/4FT cDNA of Example 2, and a plasmid containing the PACE cDNA as set forth in SEQ ID NO:5. A parallel control co-transfection was done using only the pED.sPSL.T7 plasmid and the pEA.3/4FT plasmid. After 45 hours, conditioned medium from these transfected COS cells was coated onto plastic dishes and binding to CHO:P-selectin cells (Example 4) was determined.

B1: 148.Fc, P-selectin ligand-IgG chimera with amino acids 42-189 of SEQ ID NO:2 (Fc fusion)
chain: QATEYEYLDYDFLPETEPPEMLRNSTDTTPLTGPGTPESTTVEPAARRSTGLDAGGAVTELTTELANMGNLSTDSAAMEIQTTQPAATEAQTTPLAATEAQTTRLTATEAQTTPLAATEAQTTPPAATEAQTTQPTGLEAQTTAPAAM
modifications: tyrosine residues of the anionic region (46, 48, 51 of SEQ ID NO:2) are the major site of sulfation; glycosylated, co-expressed with 3/4FT
notes: also called pED.148.Fc product; pED.149.Fc; not shown: NotI junction/linker of pED.Fc; Fc region of a human IgG1 from pED.PSL.Fc
Take B1: the binding result in assay [1] is recorded as “binds”.

B2: FFFE.148.Fc (Fc fusion)
chain: QATEFEFLDFEFLPETEPPEMLRNSTDTTPLTGPGTPESTTVEPAARRSTGLDAGGAVTELTTELANMGNLSTDSAAMEIQTTQPAATEAQTTPLAATEAQTTRLTATEAQTTPLAATEAQTTPPAATEAQTTQPTGLEAQTTAPAAM
modifications: glycosylated, co-expressed with 3/4FT
notes: also called pED.FFFE.148.Fc product; not shown: NotI junction/linker of pED.Fc; Fc region of a human IgG1
For the molecule B2, in assay [1], the binding result is listed as “binds”.

B3: recombinant CD43 (pFCD43) from COS cells co-transfected with Fuc-TIII (other, UniProt P16150 20-400, looked up)
chain: STTAVQTPTSGEPLVSTSEPLSSKMYTTSITSDPKADSTGDQTSALPPSTSINEGSPLWTSIGASTGSPLPEPTTYQEVSIKMSSVPQETPHATSHPAVPITANSLGSHTVTGGTITTNSPETSSRTSGAPVTTAASSLETSRGTSGPPLTMATVSLETSKGTSGPPVTMATDSLETSTGTTGPPVTMTTGSLEPSSGASGPQVSSVKLSTMMSPTTSTNASTVPFRNPDENSRGMLPVAVLVALLAVIVLVALLLLWRRRQKRRTGALVLSRGGKRNGVVDAWAGPAQVPEEGAVTVTVGGSGGDKGSGFPDGEGSSRRPTLTTFFGRRKSRQGSLAMEELKSGSGPSLKGEEEPLVASEDGAVDAPAPDEPEGGDGAAP
modifications: co-expressed with Fuc-TIII
notes: Membrane detergent extract; also called recombinant leukosialin
On to B3, for which the binding result in assay [2] and in assay [3] was “no binding” throughout.

B4: recombinant CD43 (pFCD43) from COS cells co-transfected with Fuc-TVII (other, UniProt P16150 20-400, looked up)
chain: STTAVQTPTSGEPLVSTSEPLSSKMYTTSITSDPKADSTGDQTSALPPSTSINEGSPLWTSIGASTGSPLPEPTTYQEVSIKMSSVPQETPHATSHPAVPITANSLGSHTVTGGTITTNSPETSSRTSGAPVTTAASSLETSRGTSGPPLTMATVSLETSKGTSGPPVTMATDSLETSTGTTGPPVTMTTGSLEPSSGASGPQVSSVKLSTMMSPTTSTNASTVPFRNPDENSRGMLPVAVLVALLAVIVLVALLLLWRRRQKRRTGALVLSRGGKRNGVVDAWAGPAQVPEEGAVTVTVGGSGGDKGSGFPDGEGSSRRPTLTTFFGRRKSRQGSLAMEELKSGSGPSLKGEEEPLVASEDGAVDAPAPDEPEGGDGAAP
modifications: co-expressed with Fuc-TVII
notes: as for B3
As to B4, the binding result in assay [2] and in assay [3] was “no binding” in each case.

B5: sPSL.T7 co-expressed with 3/4FT and PACE (PACE-cleaved soluble P-selectin ligand) (ligand, not shown: large carriers)
chain: QATEYEYLDYDFLPETEPPEMLRNSTDTTPLTGPGTPESTTVEPAARRSTGLDAGGAVTELTTELANMGNLSTDSAAMEIQTTQPAATEAQTTPLAATEAQTTRLTATEAQTTPLAATEAQTTPPAATEAQTTQPTGLEAQTTAPAAMEAQTTAPAAMEAQTTPPAAMEAQTTQTTAMEAQTTAPEATEAQTTQPTATEAQTTPLAAMEALSTEPSATEALSMEPTTKRGLFIPFSVSSVTHKGIPMAASNLSV
modifications: glycosylated; co-expressed with 3/4FT
notes: also called PACE-cleaved P-selectin ligand; CP/PSL-T7 (R4.1) product
On to B5, for which the “fold increase in bound CHO:P-selectin cells against P-selectin ligand not co-expressed with PACE” value in assay [4] is about 2 fold.

The values above are taken from patent US7563760 (GENETICS INSTITUTE, dated 2009).
